The target of experiment [1] is rat CaMKIIα holoenzyme (apo, nonphosphorylated) (rat) (UniProt P11275). The experiment is described as follows: high-speed atomic force microscopy.
The target of experiment [2] is rat CaMKIIα holoenzyme phosphorylated at Thr286 (rat) (UniProt P11275). In words: high-speed atomic force microscopy.

“And” between values parts separate entries of the source, which are not always exact repeats. Equal values may be shown once.

Drawing on article doi:10.1101/2023.01.10.523378, this text covers stoichiometry N and fraction of Ca2+/CaM bound longer than 60 s for two substances.

What is called stoichiometry N is the number of molecules, sites or subunits per partner or assembly. With “rat CaMKIIα holoenzyme (apo, nonphosphorylated) (from UniProt P11275 1-478)”, the stoichiometry N in experiment [1] is 12 and 14.

Regarding “Ca2+/calmodulin (from UniProt P0DP23 1-149) (natural protein)”, the fraction of Ca2+/CaM bound longer than 60 s came out at 77.3% in experiment [2] and 41.1% in experiment [1].
